Test results taken from patent US5789237, “Nucleic acid sequences coding for or complementary to nucleic acid sequences coding for interleukin 9 receptor” (Ludwig Institute for Cancer Research, dated 1998).
Values belong to the binder of their own block, whether it stands above or below them.

Molecular target: T1, purified recombinant murine IL9, 125I labelled (murine, UniProt P15247, 125I label)
T1 sequence: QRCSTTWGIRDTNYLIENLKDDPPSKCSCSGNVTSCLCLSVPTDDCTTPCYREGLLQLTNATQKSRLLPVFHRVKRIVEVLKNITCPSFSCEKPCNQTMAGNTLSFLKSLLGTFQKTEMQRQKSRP
Assay: Scatchard analysis on transfected COS cells
Method: In order to make sure that clone p9RA1 and all subsequent clones did in fact express IL9R. Scatchard analysis was carried out on transfected COS cells, following Goodwin et al., Cell 60: 941–951 (1990). […] This is slightly higher than the dissociation constant measured on TS1 cells previously, i.e., 67 pM.

Kd: 194 pM
B1: murine IL-9 receptor encoded by clone p9RA1 (receptor)
chain: VSVPEQGGGGQKAGAFTCLSNSIYRIDCHWSAPELGQESRAWLLFTSNQVTEIKHKCTFWDSMCTLVLPFEEVFLPFDNFTITLHRCIMGQEQVSLVDSQYLPRRHIKLDPPSDLQSNVSSGRCVLTWGINLALEPLITSLSYELAFKRQEEAWEQARHKDRIVGVTWLILEAVELNPGSIYEARLRVQMTLESYEDKTEGEYYKSHWSEWSQPVSFPSPQRRQGLLVPRWQWSASILVVVPIFLLLTGFVHLLFKLSPRLKRIFYQNIPSPEAFFHPLYSVYHGDFQSWTGARRAGPQARQNGVSTSSAGSESSIWEAVATLTYSPACPVQFACLKWEATA

Kd: 126 pM
B2: murine IL-9 receptor encoded by clone p9RC4 (receptor)
chain: VSVPEQGGGGQKAGAFTCLSNSIYRIDCHWSAPELGQESRAWLLFTSNQVTEIKHKCTFWDSMCTLVLPFEEVFLPFDNFTITLHRCIMGQEQVSLVDSQYLPRRHIKLDPPSDLQSNVSSGRCVLTWGINLALEPLITSLSYELAFKRQEEAWEARHKDRIVGVTWLILEAVELNPGSIYEARLRVQMTLESYEDKTEGEYYKSHWSEWSQPVSFPSPQRRQGLLVPRWQWSASILVVVPIFLLLTGFVHLLFKLSPRLKRIFYQNIPSPEAFFHPLYSVYHGDFQSWTGARRAGPQARQNGVSTSSAGSESSIWEAVATLTYSPACPVQFACLKWEATAPGFPGLPGSEHVLPAGCLELEGQPSAYLPQEDWAPLGSARPPPPDSDSGSSDYCMLDCCEECHLSAFPGHTESPELTLAQPVALPVSSRA
